The record followed here is paper PMC4835703, “Cellular uptake of exogenous calcineurin B is dependent on TLR4/MD2/CD14 complexes, and CnB is an endogenous ligand of TLR4” (Scientific Reports, 2016).

The experiment has as its target T1, recombinant calcineurin B (UniProt P63098 1-170).
T1 construct: calcineurin B (CnB), regulatory subunit of calcineurin; recombinant protein (rhCnB); also called CnB; rhCnB; source: provided by Haikou Qili Pharmaceutical Co., Ltd
The experiment can be described thus: MST; purified TLR4 ectodomain or soluble CD14 labelled with DyLight 488, 20 nM in MST buffer; CnB titrated in 16 1:1 dilutions; 10 min incubation; Monolith NT.115, 25 °C, 50% LED power, 20% MST power. As to conditions: both partners purified.

B1: soluble CD14 (receptor)
chain: TTPEPCELDDEDFRCVCNFSEPQPDWSEAFQCVSAVEVEIHAGGLNLEPFLKRVDADADPRQYADTVKALRVRRLTVGAAQVPAQLLVGALRVLAYSRLKELTLEDLKITGTMPPLPLEATGLALSSLRLRNVSWATGRSWLAELQQWLKPGLKVLSIAQAHSPAFSCEQVRAFPALTSLDLSDNPGLGERGLMAALCPHKFPAIQNLALRNTGMETPTGVCAALAAAGVQPHSLDLSHNSLRATVNPSAPRCMWSSALNSLNLSFAGLEQVPKGLPAKLRVLDLSCNRLNRAPQPDELPEVDNLTLDGNPFLVPGTALPHEGSMN
modifications: labelled with DyLight 488 in the MST experiment and where it was the soluble partner in the ELISA; unlabelled where coated on the plate and in the co-IP
notes: CD14, soluble recombinant form; also called sCD14; purified soluble CD14; source: bought: Sino Biological, Inc
For B1, the Kd is 1010 nM.

Usually Kd stands for a measure of binding affinity in units of concentration.
